Experimental data as given in patent US20190330313A1 (HANX BIOPHARMACEUTICS, published 2019).

Columns and labels:
[1] = biological target: T1, PD-1-his antigen (UniProt Q15116 25-167, limits assumed); experiment: ELISA, PD-1-his coated at 0.25 µg/ml
T1 construct: not shown: his tag
Method: An ELISA plate was coated with PD-1-his antigen in a concentration of 0.25 μg/ml (100 μl per well) by incubation at 4° C. overnight.
The ELISA plate coated with the PD-1-his antigen was blocked with 1% BSA in the PBS buffer at 37° C. for 2 hours and washed with 1×PBST buffer containing 1% Tween-20 for three times, with gently patting to dryness.

[2] = biological target: T2, PD-1-hIgGFc antigen (human, UniProt Q15116 25-167, limits assumed); experiment: competitive ELISA, PD-1-hIgGFc coated, competitor PDL1-mIgG2aFc 0.3 µg/ml
T2 construct: not shown: human IgG Fc (hIgGFc)
T2 sequence (Q15116 25-167 limits assumed): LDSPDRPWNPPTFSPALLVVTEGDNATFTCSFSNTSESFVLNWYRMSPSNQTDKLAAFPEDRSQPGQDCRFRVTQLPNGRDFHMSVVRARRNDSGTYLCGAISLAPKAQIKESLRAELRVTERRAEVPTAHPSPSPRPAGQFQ
Method: A 96-well ELISA plate was coated with PD-1-hIgGFc antigen in a concentration of 0.5 μg/ml (50 μl per well) by incubation at 4° C. overnight.

[3] = biological target: T2, PD-1-hIgGFc antigen; experiment: competitive ELISA, PD-1-hIgGFc coated, competitor PDL2-his tag 0.5 µg/ml
Method: A 96-well ELISA plate was coated with PD-1-hIgGFc antigen in a concentration of 1.0 μg/ml (100 μl per well) by incubation at 4° C. overnight.
After the 96-well ELISA plate was washed with the PBST buffer for five times and gently patted to dryness, HRP-conjugated monoclonal mouse anti-his tag as a secondary antibody in 1:750 dilution (50 μl per well) was added for incubation at 37° C. for 1 hour.

T1 sequence (Q15116 25-167 limits assumed): as above

EC50 [1]: 0.04 nM | EC50 [2]: 0.474 nM | EC50 [3]: 1.83 nM
B1: humanized H8L2 antibody (IgG-like antibody H8L2 against PD-1) (antibody)
heavy: EVQLVQSGGGLVQPGGSLKLSCAASGFTFSSYGMSWVRQAPGKGLDWVATISGGGRDTYYPDSVKGRFTISRDNSKNNLYLQMNSLRAEDTALYYCARQKGEAWFAYWGQGTLVTVSSASTKGPSVFPLAPCSRSTSESTAALGCLVKDYFPEPVTVSWNSGALTSGVHTFPAVLQSSGLYSLSSVVTVPSSSLGTKTYTCNVDHKPSNTKVDKRVESKYGPPCPPCPAPEFLGGPSVFLFPPKPKDTLMITRTPEVTCVVVDVSQEDPEVQFNWYVDGVEVHNAKTKPREEQFNSTYRVVSVLTPLHQDWLNGKEYKCKVSNKGLPSSIEKTISKAKGQPREPQVYTLPPSQEEMTKNQVSLTCLVKGFYPSDIAVEWESNGQPENNYKTTPPVLDSDGSFFLYSRLTVDKSRWQEGNVFSCSVMHEALHAHYTQKSLSLSLGK
light: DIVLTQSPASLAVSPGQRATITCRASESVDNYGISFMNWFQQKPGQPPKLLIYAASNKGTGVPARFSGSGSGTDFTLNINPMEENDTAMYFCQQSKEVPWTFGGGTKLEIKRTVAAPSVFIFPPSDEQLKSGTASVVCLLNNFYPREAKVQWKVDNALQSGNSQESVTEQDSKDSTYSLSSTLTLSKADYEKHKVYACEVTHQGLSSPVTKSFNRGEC
notes: Expressed in 293 cells and purified on protein A; also called 18A10 H8L2
